Legend:
Cyno PD1 = assay: flow cytometry
[1] = target: T1, soluble PD-1 (biotinylated PD-1; expi293 expressed soluble PD1-avi) (UniProt Q15116 25-170, biotinylated (Avidity's biotinylation kit, avi tag) where loaded on SA sensors or used to stain yeast); assay: yeast display flow cytometry
[2] = target: human PD-1 on cells (transfected Expi293 cells, PHA-cultured T cells, cells of the Promega PD1-PDL1 bioassay, … (UniProt Q15116 25-288)); assay: flow cytometry
[3] = target: T1, soluble PD-1 (biotinylated PD-1; …); assay: ELISA; variable antigen coating
[4] = target: T1, soluble PD-1 (biotinylated PD-1; …); assay: ELISA; constant antigen coating

T1 sequence (Q15116 25-170): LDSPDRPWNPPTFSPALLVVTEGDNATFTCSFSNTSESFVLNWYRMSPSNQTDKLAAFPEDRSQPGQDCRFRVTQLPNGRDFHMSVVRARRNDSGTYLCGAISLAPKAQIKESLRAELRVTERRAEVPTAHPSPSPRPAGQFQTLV
Chain of human PD-1 on cells (transfected Expi293 cells, PHA-cultured T cells, cells of the Promega PD1-PDL1 bioassay, … (Q15116 25-288): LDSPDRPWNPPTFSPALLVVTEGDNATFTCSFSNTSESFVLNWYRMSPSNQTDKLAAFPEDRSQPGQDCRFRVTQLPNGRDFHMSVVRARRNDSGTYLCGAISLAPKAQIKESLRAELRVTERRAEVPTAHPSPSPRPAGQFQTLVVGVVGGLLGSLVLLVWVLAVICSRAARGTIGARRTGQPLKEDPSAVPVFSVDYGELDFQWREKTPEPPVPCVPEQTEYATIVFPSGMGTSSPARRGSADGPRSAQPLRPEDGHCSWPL

B1: P4#B3 (Fc fusion)
VH: QVQLVQSGGGLVQPGRSLRLSCAASGFTFDDYAMHWVRQAPGKGLEWVSGISWNSGSIGYADSVKGRFTVSRDNAKNSLYLQMNSLRAEDTAVYYCASDYGDKYYYYGMDVWGKGTTVTVSS
VL: QPGLTQPPSASGTPGQRVTISCSGSSSNIGSNTVNWYQQFPGKAPKLLIFNDNQRPSGVPDRFSASKSGTSASLAISGLQSEDEADYYCAAWDGGLNGRGVFGGGTKLTVL
Cyno PD1
  EC50: 0.072 µg/mL

B2: P4-B3 scFv (scFv, V domains shown)
VH: B1 VH
VL: B1 VL
[1]
  EC50: 101 nM

B3: P4-B3 minibody (scFv-Fc) (Fc fusion)
VH: B1 VH
VL: B1 VL
[2]
  EC50: 0.097 µg/mL

B4: P4-B3 IgG1 wild type monomer (antibody, V domains shown)
VH: B1 VH
VL: QPGLTQPPSASGTPGQRVTISCSGSSSNIGSNTVNWYQQFPGKAPKLLIFNDNQRPSGVPDRFSASKSGTSASLAISGLQSEDEADYYCAAWDGGLNGRGVFGGGTKLTVLG
[3]
  EC50: 0.514 µg/mL
[4]
  EC50: 0.0407 µg/mL

From patent US20220275088A1 (published 2022)
